Key:
[1] = molecular target: membrane-associated human IR-B (plasma membranes of BHK cells stably transfected with the human IR-B insert) (human) (UniProt P06213); assay: SPA competition vs [125I-A14Y]-human insulin, membrane hIR-B, 0.1% HSA
[2] = molecular target: insulin receptor on primary rat adipocytes (rat) (UniProt P15127); assay: cell-based or functional assay
[3] = molecular target: membrane-associated human IR-A (plasma membranes of BHK cells stably transfected with the human IR-A insert) (human) (UniProt P06213); assay: SPA competition vs [125I-A14Y]-human insulin, membrane hIR-A, 0.1% HSA
[4] = molecular target: T1, membrane-associated human IGF-1R (plasma membranes of BHK cells stably transfected with the human IGF-IR … (human, UniProt P08069 31-1367)); assay: SPA competition vs [125I-Tyr31]-human IGF-1, membrane hIGF-1R, 0.1% HSA
T1 construct: whole, on cells; Receptor in purified plasma membranes, not on intact cells; also called hIGF1R; insulin-like growth factor 1 receptor
Procedure: The relative binding affinity for either of the membrane-associated human IR-A, IR-B or IGF-1R is determined by competition binding in a SPA setup. IR assays are performed in duplicate in 96-well OptiPlates (Perkin-Elmer Life Sciences). […] Assays are terminated by centrifugation of the plate at 2000 rpm for 2 minutes and bound radioactivity quantified by counting on a TopCount NXT (Perkin-Elmer Life Sciences).
IGF-1R assays are conducted essentially as for the IR binding assays except that membrane-associated IGF-1R and 50 pM [¹²5-Tyr31]-human IGF-1 were employed.

[5] = molecular target: T2, solubilised human IR-A (semipurified by wheat germ agglutinin chromatography from baby hamster kidney (BHK) … (human, UniProt P06213-2 28-1370)); assay: SPA competition vs [125I-A14Y]-human insulin, solubilised hIR-A, 0% HSA
T2 construct: mature; Detergent-solubilised holoreceptor captured by anti-IR mouse antibody 83-7 on SPA beads; the precursor is processed into alpha and beta chains; also called hIRA; human insulin receptor (IR), A isoform

[6] = molecular target: T2, solubilised human IR-A (semipurified by …); assay: SPA competition vs [125I-A14Y]-human insulin, solubilised hIR-A, 1.5% HSA

T2 sequence (P06213 other isoform, or with tags, fused parts or gaps limits assumed): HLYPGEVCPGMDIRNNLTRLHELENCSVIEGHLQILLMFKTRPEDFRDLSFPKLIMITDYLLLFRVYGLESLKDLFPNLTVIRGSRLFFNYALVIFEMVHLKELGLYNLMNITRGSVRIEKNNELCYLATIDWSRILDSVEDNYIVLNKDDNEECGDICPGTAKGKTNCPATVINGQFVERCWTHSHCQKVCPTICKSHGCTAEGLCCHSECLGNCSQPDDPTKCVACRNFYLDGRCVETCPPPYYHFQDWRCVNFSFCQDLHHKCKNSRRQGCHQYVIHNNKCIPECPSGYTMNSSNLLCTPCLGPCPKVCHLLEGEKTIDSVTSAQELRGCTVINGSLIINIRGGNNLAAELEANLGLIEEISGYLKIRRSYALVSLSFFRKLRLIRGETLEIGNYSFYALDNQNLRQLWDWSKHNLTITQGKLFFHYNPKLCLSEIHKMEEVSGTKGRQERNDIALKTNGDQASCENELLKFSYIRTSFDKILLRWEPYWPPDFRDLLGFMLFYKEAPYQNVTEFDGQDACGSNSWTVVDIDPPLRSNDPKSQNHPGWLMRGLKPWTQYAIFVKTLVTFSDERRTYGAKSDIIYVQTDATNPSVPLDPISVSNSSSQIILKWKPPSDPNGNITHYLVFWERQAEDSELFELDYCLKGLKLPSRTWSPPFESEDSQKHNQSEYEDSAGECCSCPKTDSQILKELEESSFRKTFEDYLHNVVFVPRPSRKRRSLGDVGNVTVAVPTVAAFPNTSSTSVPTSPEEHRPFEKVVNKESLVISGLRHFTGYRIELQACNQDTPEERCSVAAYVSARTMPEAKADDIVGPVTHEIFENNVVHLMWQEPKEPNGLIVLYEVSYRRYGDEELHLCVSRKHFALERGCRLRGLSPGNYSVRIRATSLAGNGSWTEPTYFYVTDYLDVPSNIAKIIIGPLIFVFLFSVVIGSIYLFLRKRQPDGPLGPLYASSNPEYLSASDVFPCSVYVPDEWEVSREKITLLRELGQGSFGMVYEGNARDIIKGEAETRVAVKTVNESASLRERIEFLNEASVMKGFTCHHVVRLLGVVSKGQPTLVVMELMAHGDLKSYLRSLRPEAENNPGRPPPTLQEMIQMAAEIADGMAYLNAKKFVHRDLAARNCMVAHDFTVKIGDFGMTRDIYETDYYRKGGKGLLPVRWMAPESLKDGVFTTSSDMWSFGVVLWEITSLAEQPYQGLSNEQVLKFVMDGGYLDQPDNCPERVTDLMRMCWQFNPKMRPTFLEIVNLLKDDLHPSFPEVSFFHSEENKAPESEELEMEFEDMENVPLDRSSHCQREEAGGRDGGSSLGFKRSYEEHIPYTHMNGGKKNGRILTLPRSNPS
insulin receptor on primary rat adipocytes (rat), sequence (P15127 27-1383): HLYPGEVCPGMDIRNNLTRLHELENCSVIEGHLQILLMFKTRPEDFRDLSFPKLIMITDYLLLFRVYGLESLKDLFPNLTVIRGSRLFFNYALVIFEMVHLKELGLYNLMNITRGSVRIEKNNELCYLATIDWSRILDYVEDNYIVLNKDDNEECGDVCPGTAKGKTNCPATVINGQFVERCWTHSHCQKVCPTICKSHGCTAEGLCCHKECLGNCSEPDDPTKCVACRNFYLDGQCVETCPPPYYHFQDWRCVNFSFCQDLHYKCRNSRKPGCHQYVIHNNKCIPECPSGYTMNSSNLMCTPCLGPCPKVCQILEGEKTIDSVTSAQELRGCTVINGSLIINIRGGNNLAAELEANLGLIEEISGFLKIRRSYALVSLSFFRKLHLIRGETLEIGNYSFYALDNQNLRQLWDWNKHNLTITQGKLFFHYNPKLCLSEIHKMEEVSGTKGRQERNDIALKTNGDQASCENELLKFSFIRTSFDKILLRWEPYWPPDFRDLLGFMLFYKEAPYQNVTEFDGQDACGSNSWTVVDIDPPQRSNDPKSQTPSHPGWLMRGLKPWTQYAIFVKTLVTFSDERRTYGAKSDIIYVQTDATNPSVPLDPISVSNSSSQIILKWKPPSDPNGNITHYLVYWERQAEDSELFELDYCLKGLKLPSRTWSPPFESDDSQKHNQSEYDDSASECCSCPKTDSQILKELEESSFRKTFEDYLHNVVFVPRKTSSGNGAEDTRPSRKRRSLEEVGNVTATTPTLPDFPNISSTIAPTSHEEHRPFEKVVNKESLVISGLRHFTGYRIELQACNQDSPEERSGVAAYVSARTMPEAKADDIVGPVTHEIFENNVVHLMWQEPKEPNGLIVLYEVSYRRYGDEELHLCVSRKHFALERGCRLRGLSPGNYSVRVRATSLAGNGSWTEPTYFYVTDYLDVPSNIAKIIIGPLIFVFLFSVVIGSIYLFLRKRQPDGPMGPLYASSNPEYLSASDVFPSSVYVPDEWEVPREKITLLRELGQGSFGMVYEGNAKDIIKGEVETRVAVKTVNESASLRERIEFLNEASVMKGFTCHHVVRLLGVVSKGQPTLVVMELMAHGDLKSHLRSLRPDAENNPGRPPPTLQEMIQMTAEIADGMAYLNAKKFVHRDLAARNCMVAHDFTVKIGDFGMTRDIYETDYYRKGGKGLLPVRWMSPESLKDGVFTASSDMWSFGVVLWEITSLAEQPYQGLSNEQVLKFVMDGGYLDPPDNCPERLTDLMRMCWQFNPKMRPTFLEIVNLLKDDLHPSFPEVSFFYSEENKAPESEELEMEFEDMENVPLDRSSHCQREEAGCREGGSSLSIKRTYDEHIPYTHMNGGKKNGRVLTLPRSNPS
membrane-associated human IR-B (plasma membranes of BHK cells stably transfected with the human IR-B insert) (human), sequence (P06213 28-1382): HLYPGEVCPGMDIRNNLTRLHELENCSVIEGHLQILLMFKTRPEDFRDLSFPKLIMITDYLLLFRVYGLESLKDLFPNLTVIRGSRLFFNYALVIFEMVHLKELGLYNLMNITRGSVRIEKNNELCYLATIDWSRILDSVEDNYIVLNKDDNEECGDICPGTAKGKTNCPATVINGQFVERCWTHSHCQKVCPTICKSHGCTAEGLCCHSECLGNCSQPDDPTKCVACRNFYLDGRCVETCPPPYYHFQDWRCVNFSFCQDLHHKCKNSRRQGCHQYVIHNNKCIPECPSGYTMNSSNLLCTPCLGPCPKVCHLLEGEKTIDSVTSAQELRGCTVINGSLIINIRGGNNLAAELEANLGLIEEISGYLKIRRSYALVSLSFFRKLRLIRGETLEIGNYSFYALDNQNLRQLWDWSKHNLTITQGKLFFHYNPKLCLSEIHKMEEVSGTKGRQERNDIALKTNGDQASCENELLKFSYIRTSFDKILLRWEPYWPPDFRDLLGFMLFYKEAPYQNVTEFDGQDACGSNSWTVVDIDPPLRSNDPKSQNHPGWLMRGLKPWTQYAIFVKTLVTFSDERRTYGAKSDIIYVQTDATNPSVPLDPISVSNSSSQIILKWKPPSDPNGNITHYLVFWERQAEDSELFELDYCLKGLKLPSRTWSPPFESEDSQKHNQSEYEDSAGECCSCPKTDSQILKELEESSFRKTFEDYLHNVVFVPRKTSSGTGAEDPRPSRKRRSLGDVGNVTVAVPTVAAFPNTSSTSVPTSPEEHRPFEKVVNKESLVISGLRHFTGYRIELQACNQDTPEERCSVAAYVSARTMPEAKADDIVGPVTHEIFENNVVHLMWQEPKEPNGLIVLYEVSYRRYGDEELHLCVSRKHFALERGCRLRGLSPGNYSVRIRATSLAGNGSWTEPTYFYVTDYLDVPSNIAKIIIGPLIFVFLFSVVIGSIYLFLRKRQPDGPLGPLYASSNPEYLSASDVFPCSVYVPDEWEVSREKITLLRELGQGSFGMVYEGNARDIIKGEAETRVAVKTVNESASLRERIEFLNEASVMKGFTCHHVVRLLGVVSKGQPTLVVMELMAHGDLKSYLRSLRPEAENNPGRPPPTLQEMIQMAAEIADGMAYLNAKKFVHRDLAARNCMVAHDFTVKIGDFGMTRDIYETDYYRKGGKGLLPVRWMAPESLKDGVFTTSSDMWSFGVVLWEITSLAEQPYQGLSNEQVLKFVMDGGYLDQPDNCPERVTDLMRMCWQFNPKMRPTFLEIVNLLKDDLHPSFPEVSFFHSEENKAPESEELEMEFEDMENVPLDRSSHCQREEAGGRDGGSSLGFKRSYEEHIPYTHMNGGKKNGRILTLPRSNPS

Row | Molecule | relative binding affinity (% rel to HI) [1] | Lipogenesis 1% HSA (% rel to HI) [2] | relative binding affinity (% rel to HI) [3] | relative binding affinity (% rel to HI) [4] | relative binding affinity (% rel to HI) [5] | relative binding affinity (% rel to HI) [6]
1 | A22K(N(eps)Hexadecanedioyl-gGlu-2xOEG), B3E, B27E, B29R, desB30 human insulin (ligand) | 72.1 % rel to HI | 3.2 % rel to HI | 71.1 % rel to HI | – | – | –
2 | A22K(N(eps)hexadecanedioyl-4xgGlu), B3E, B26E, B29R, desB30 human insulin (ligand) | 46.8 % rel to HI | – | 29.1 % rel to HI | – | – | –
3 | A22K(N(eps)hexadecanedioyl-4xgGlu), B3E, B27E, B28E, B29R, desB30 human insulin (ligand) | 35.7 % rel to HI | 4.4 % rel to HI | 29.1 % rel to HI | – | – | –
4 | A22K(N(eps)hexadecanedioyl-4xgGlu), B3E, B27E, B29R, desB30 human insulin (ligand) | 55.3 % rel to HI | 1.1 % rel to HI | 25.7 % rel to HI | – | – | –
5 | A22K(N(eps)hexadecanedioyl-4xgGlu), B3E, B27P, B28E, B29R, desB30 human insulin (ligand) | 32.1 % rel to HI | 3.7 % rel to HI | 27.5 % rel to HI | – | – | –
6 | A22K(N(eps)hexadecanedioyl-4xgGlu), B3E, B28D, B29R, desB30 human insulin (ligand) | 47.8 % rel to HI | 3.8 % rel to HI | 20.9 % rel to HI | – | – | –
7 | A22K(N(eps)hexadecanedioyl-gGlu-2xOEG), B3E, B26E, B29R, desB30 human insulin (ligand) | 40.2 % rel to HI | – | 34.4 % rel to HI | – | – | –
8 | A22K(N(eps)hexadecanedioyl-gGlu-2xOEG), B3E, B27E, B28E, B29R, desB30 human insulin (ligand) | 38.2 % rel to HI | 4.4 % rel to HI | 30.9 % rel to HI | – | – | –
9 | A22K(N(eps)hexadecanedioyl-gGlu-2xOEG), B3E, B27P, B28E, B29R, desB30 human insulin (ligand) | 29.4 % rel to HI | 3.3 % rel to HI | 31.2 % rel to HI | – | – | –
10 | A22K(N(eps)hexadecanedioyl-gGlu-2xOEG), B3E, B28D, B29R, desB30 human insulin (ligand) | 40.7 % rel to HI | 2.6 % rel to HI | 32.1 % rel to HI | – | – | –
11 | A22K(N(eps)tetradecanedioyl-4xgGlu), B3E, B26E, B27E, B28E, B29R, desB30 human insulin (ligand) | 82.4 % rel to HI | 18.2 % rel to HI | 48.3 % rel to HI | – | – | –
12 | A22K(N(eps)tetradecanedioyl-4xgGlu), B3E, B26E, B27E, B28R, desB29, desB30 human insulin (ligand) | 93.3 % rel to HI | 29.6 % rel to HI | 57.2 % rel to HI | – | – | –
13 | A22K(N(eps)tetradecanedioyl-4xgGlu), B3E, B26E, B27P, B28R, desB29, desB30 human insulin (ligand) | 90.7 % rel to HI | 78.8 % rel to HI | 63.2 % rel to HI | – | – | –
14 | A22K(N(eps)tetradecanedioyl-4xgGlu), B3E, B26E, B28E, B29P, B30R human insulin (ligand) | 76.2 % rel to HI | 17.9 % rel to HI | 46.4 % rel to HI | – | – | –
15 | A22K(N(eps)tetradecanedioyl-4xgGlu), B3E, B26E, B28E, B29R, desB30 human insulin (ligand) | 111 % rel to HI | 20.5 % rel to HI | 68 % rel to HI | – | – | –
16 | A22K(N(eps)tetradecanedioyl-4xgGlu), B3E, B26E, B29R, desB30 human insulin (ligand) | 105 % rel to HI | 31.3 % rel to HI | 66.9 % rel to HI | – | – | –

Row | Molecule | relative binding affinity (% rel to HI) [1] | Lipogenesis 1% HSA (% rel to HI) [2] | relative binding affinity (% rel to HI) [3] | relative binding affinity (% rel to HI) [4] | relative binding affinity (% rel to HI) [5] | relative binding affinity (% rel to HI) [6]
17 | A22K(N(eps)tetradecanedioyl-4xgGlu), B3E, B27E, B28E, B29P, B30R human insulin (ligand) | 70 % rel to HI | 23.7 % rel to HI | 45.1 % rel to HI | – | – | –
18 | A22K(N(eps)tetradecanedioyl-4xgGlu), B3E, B27E, B28E, B29R, desB30 human insulin (ligand) | 157 % rel to HI | 27.3 % rel to HI | 74.9 % rel to HI | – | – | –
19 | A22K(N(eps)tetradecanedioyl-4xgGlu), B3E, B27E, B28R, desB29, desB30 human insulin (ligand) | 81.7 % rel to HI | 29.9 % rel to HI | 40.6 % rel to HI | – | – | –
20 | A22K(N(eps)tetradecanedioyl-4xgGlu), B3E, B27E, B29R, desB30 human insulin (ligand) | 119 % rel to HI | 11.1 % rel to HI | 61.5 % rel to HI | – | – | –
21 | A22K(N(eps)tetradecanedioyl-4xgGlu), B3E, B27P, B28E, B29R, desB30 human insulin (ligand) | 77.6 % rel to HI | 27 % rel to HI | 64.3 % rel to HI | – | – | –
22 | A22K(N(eps)tetradecanedioyl-4xgGlu), B3E, B28D, B29R, desB30 human insulin (ligand) | 93.7 % rel to HI | 26.4 % rel to HI | 64.9 % rel to HI | – | – | –
23 | A22K(N(eps)tetradecanedioyl-4xgGlu), B3E, B28E, B29P, B30R human insulin (ligand) | 94.5 % rel to HI | 19.5 % rel to HI | 44.6 % rel to HI | – | – | –
24 | A22K(N(eps)tetradecanedioyl-4xgGlu), B3Q, B26E, B28E, B29R, desB30 human insulin (ligand) | 133 % rel to HI | 31.2 % rel to HI | 78.5 % rel to HI | – | – | –
25 | A22K(N(eps)tetradecanedioyl-4xgGlu), B3Q, B26E, B29R, desB30 human insulin (ligand) | 163 % rel to HI | 31.4 % rel to HI | 76.5 % rel to HI | – | – | –
26 | A22K(N(eps)tetradecanedioyl-gGlu-2xOEG), B3E, B27E, B28E, B29R, desB30 human insulin (ligand) | 159 % rel to HI | 23.9 % rel to HI | 103 % rel to HI | – | – | –
27 | A22K(N(eps)tetradecanedioyl-gGlu-2xOEG), B3E, B27P, B28E, B29R, desB30 human insulin (ligand) | 75.9 % rel to HI | 20.3 % rel to HI | 75.6 % rel to HI | – | – | –
28 | A22K(N(eps)tetradecanedioyl-gGlu-2xOEG), B3E, B28D, B29R, desB30 human insulin (ligand) | 108 % rel to HI | 21.3 % rel to HI | 93.9 % rel to HI | – | – | –
29 | A8R, A22K(N(eps)tetradecanedioyl-4xgGlu), B3E, B26E, B28E, B29R, desB30 human insulin (ligand, not fully specified; Lys A22 acylated on N(eps) with tetradecanedioyl-4xgGlu, Two-chain acylated insulin analogue; also called Ex. No. 23) chain 1: GIVEQCCRSICSLYQLENYCNK chain 2: FVEQHLCGSHLVEALYLVCGERGFFETER | 143 % rel to HI | 59 % rel to HI | 78.5 % rel to HI | 5.7 % rel to HI | 229 % rel to HI | 182 % rel to HI
30 | A14E, A22K(N(eps)hexadecanedioyl-4xgGlu), B3E, B27E, B28E, B29R, desB30 human insulin (ligand, not fully specified; Lys A22 acylated on N(eps) with hexadecanedioyl-4xgGlu, Two-chain acylated insulin analogue; also called Ex. No. 27) chain 1: GIVEQCCTSICSLEQLENYCNK chain 2: FVEQHLCGSHLVEALYLVCGERGFFYEER | 23.2 % rel to HI | 3.7 % rel to HI | 16.5 % rel to HI | 14.3 % rel to HI | 114 % rel to HI | 5.4 % rel to HI
31 | A8R, A22K(N(eps)tetradecanedioyl-4xgGlu), B3E, B26E, B29R, desB30 human insulin (ligand, not fully specified; Lys A22 acylated on N(eps) with tetradecanedioyl-4xgGlu, Two-chain acylated insulin analogue; also called Ex. No. 15) chain 1: GIVEQCCRSICSLYQLENYCNK chain 2: FVEQHLCGSHLVEALYLVCGERGFFETPR | 174 % rel to HI | 70.9 % rel to HI | 108 % rel to HI | 10.8 % rel to HI | 294 % rel to HI | 237 % rel to HI
32 | A8R, A22K(N(eps)tetradecanedioyl-4xgGlu), B3E, B27E, B28E, B29R, desB30 human insulin (ligand, not fully specified; Lys A22 acylated on N(eps) with tetradecanedioyl-4xgGlu, Two-chain acylated insulin analogue; also called Ex. No. 24) chain 1: GIVEQCCRSICSLYQLENYCNK chain 2: FVEQHLCGSHLVEALYLVCGERGFFYEER | 164 % rel to HI | 78.6 % rel to HI | 88.1 % rel to HI | 24 % rel to HI | 274 % rel to HI | 211 % rel to HI

Reference: patent US20180305431A1 (Novo Nordisk, published 2018)
